Common to all, as to settings: source organism: Homo sapiens
The target in assay [1] is HLA-A*03:01. As to the kind of experiment: IEDB peptide-MHC binding, purified MHC/competitive/radioactivity; filed as Kd, often an IC50 or EC50 that approximates it; ≥ and ≤ were set here for values at or beyond the usual limits of such assays.
The target of assay [2] is HLA-A*11:01. The assay is described as above.
Assay [3] has as its target HLA-A*02:01. The description is as above.
Assay [4] deals with HLA-A*01:01. The description is as above.
The target in assay [5] is HLA-A*02:01. As to the kind of experiment: IEDB peptide-MHC binding, purified MHC/competitive/radioactivity; ≥ and ≤ were set here for values at or beyond the usual limits of such assays.
For assay [6], the target named is HLA-A*03:01. The description is as above.
The target of assay [7] is HLA-A*24:02. As to the kind of experiment: IEDB peptide-MHC binding, purified MHC/competitive/radioactivity; filed as Kd, often an IC50 or EC50 that approximates it; ≥ and ≤ were set here for values at or beyond the usual limits of such assays.

In the Immune Epitope Database (IEDB) one finds Kd and IC50 data, which are given here for 49 sequences.

For ADLVGFLLLK, the Kd in assay [1] came out at 31.4 nM; in assay [2], 20.3 nM. The like results for ALAETSYVK were, in that order, 35.5 nM and 16.4 nM. ALGLVCVQA: the Kd in assay [3] worked out at 333 nM. As to ALREEEEGV, in assay [3], the equilibrium dissociation constant (Kd) worked out at 238 nM.

For the sequence DLVGFLLLKY, in assay [1], the dissociation constant Kd amounted to 1590 nM. For ETSYVKVLEY, the Kd in assay [4] was found to be 44.6 nM. For FLIIVLVMIA, in assay [1], the Kd came to 1180 nM. For FLWGPRALA, the Kd in assay [3] amounted to 119 nM.

Consider GLLGDNQIM, for which the IC50 in assay [5] came out at 980 nM. Regarding GLVCVQAAT, the Kd in assay [3] was found to be 2170 nM. On to HSAYGEPRK, for which the IC50 in assay [6] was determined as 786 nM.

On to IMPKTGFLI, for which, in assay [5], the IC50 was 649 nM. Further, the Kd in assay [7] came out at 3.8 nM. As to IMPKTGFLII, the Kd in assay [3] came to 1430 nM; in assay [7] it was 34.3 nM. Consider KTGFLIIVLV, for which, in assay [3], the Kd turned out to be 4170 nM. As to KVADLVGFL, the 50% inhibitory concentration (IC50) in assay [5] was found to be 575 nM. In the case of KVADLVGFLL, the Kd in assay [3] was found to be 89.3 nM. In the case of LFRAVITKK, in assay [1], the Kd is 1000 nM. With LIIVLVMIA, the Kd in assay [1] is not below 5000 nM. With LLGDNQIMP, in assay [6], the IC50 was 550 nM.

As to LLTQDLVQEK, the Kd in assay [2] is 36.9 nM. On to LSVMEVYDGR, for which the Kd in assay [2] amounted to 492 nM.

Regarding LTQDLVQEK, the Kd in assay [2] amounted to 15.5 nM. For the sequence LTQDLVQEKY, the Kd in assay [4] came out at 20.8 nM.

Consider LVGFLLLKY, for which, in assay [1], the Kd worked out at 196 nM. With LVGFLLLKYR, the dissociation constant (Kd) in assay [1] came to 3240 nM. Consider LVLGTLEEV, for which the equilibrium dissociation constant (Kd) in assay [3] worked out at 156 nM. With LVQEKYLEY, in assay [2], the Kd was 111 nM. Turning to MLESVIKNY, the Kd in assay [4] is 2270 nM. Turning to MLESVIKNYK, the Kd in assay [1] amounted to 78.6 nM; in assay [2], 218 nM. On to MSLEQRSLH, for which, in assay [1], the Kd came to 3550 nM.

Regarding NYKHCFPEI, the Kd in assay [7] came out at 2.5 nM. With RALAETSYV, the IC50 in assay [5] came out at 500 nM. Turning to RALAETSYVK, the Kd in assay [1] came to 61.1 nM; in assay [2], 24.6 nM. Turning to RVRFFFPSLR, the dissociation constant (Kd) in assay [1] worked out at 25.6 nM. As for SLEQRSLHCK, the IC50 in assay [6] was found to be 733 nM. For the same sequence, in assay [2], the Kd is 393 nM.

Take SLFRAVITKK: the Kd in assay [1] came to 9.2 nM; in assay [2], 6 nM. As for SLHCKPEEA, in assay [3], the Kd came to 385 nM. For the sequence SLQLVFGIDV, the Kd in assay [3] was found to be 2500 nM. Consider SVMEVYDGR, for which the values for the Kd in assay [1] and in assay [2] were 1180 nM and 4.5 nM, respectively. On to SYVKVLEYVI, for which the Kd in assay [7] was 333 nM. On to TSCILESLFR, for which the Kd in assay [2] stood at 393 nM. As for TTINFTRQR, the IC50 in assay [6] turned out to be 688 nM. For the same sequence, in assay [2], the Kd was found to be 5.9 nM. As to VADLVGFLL, in assay [3], the Kd was found to be 2500 nM. Turning to VGFLLLKYR, the Kd in assay [1] was determined as 2500 nM. Consider VMIAMEGGHA, for which the Kd in assay [3] is 139 nM. For YVIKVSARV, the Kd in assay [3] was determined as 357 nM. With YVIKVSARVR, the IC50 in assay [6] is 579 nM. As to YVKVLEYVIK, the Kd in assay [1] was 3790 nM. As to YVLVTCLGL, the Kd in assay [3] was 2170 nM.
